{
  "source": "the nanobody polyreactivity screen of Harvey et al. (2022)",
  "data": [
    {"experiment": "yeast display, Sf9 membrane polyspecificity reagent, FACS + sequencing; frameworks hold sequencing errors", "in_short": "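Sorting gates, low and high (top ~1%), were placed on anti-HA fluorescence to track expression and on streptavidin fluorescence to track reagent binding. A clone's polyreactivity label is taken from the gate it came out of. The reagent was 10% biotinylated, detergent-solubilized Sf9 membrane, applied for 1 hour at 4 °C to galactose-induced yeast display cells.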", "values": [
      {"sequence": "QVQLVESGGGLVQAGGSLRLSCAASGSTFTYYAMGWYRQAPGTERELVAAITGSDGRTYYADSVKGRFTISRDNAKNTVYLQMNSLKPEDTAVYYCATDVPIREIDEFGYWGQGTQVTVSS", "polyreactivity (PSR sort gate)": "low polyreactivity"},
      {"sequence": "QVQLVESGGGLVQAGGSLRLSCAASGSTFTYYAMGWYRQPPGKERELVAAIDTSGTSTYYADSVKGRFTISRDNAKNTVYLQINSLKPEDTAVYYCNAYPTTYYQQYDYWGQGTQVTVSS", "polyreactivity (PSR sort gate)": "low polyreactivity"},
      {"sequence": "QVQLVESGGGLVQAGGSLRLSCAASGSTFTYYAMGWYSQAPGKERELVARIRASGGSTYYADSVKGRFTISRDTAKNTDYLQMNSLKPEDTAVYYCAAQLYFLYRTYDYWGQGTQVTVSS", "polyreactivity (PSR sort gate)": "high polyreactivity"},
      {"sequence": "QVQLVESGGGLVQAGGSLRLSCAASGSTFTYYSMGWDRQAPGKERELVAAISSNGGSTSYADSVKGRFTISRDNAKNTVYLQMNSLKPEDTAVYYCAAQVPLFGRYYWGQGTQVTVSS", "polyreactivity (PSR sort gate)": "high polyreactivity"},
      {"sequence": "QVQLVESGGGLVQAGGSLRLSCAASGSTFVAYVMGWYRQAPGKERELVASITSGGITNYADSVKGRFTISRDNAKNTVYLQMNSLKPEDTAVKGDYWGQGTQVTVSS", "polyreactivity (PSR sort gate)": "low polyreactivity"},
      {"sequence": "QVQLVESGGGLVQAGGSLRLSCAASGSTFVDNAMGWYRQAPGKEREFVAAIDWSGGSTFYADSVKGRFTISRDNAKNTVYLQMNSLKPEDTAVYYCAAYPQAYIADYDYWGQGTQVTVSS", "polyreactivity (PSR sort gate)": "low polyreactivity"},
      {"sequence": "QVQLVESGGGLVQAGGSLRLSCAASGSTFVDYAMGWYRQAPGKERELVAGITSGGSTNYADSVKGRFTISRDNAKNTVYLQMNSLKPEDTAVYYCNADPGQDTPGGISDEWYSVWLEYDYWGQGTQVTVSS", "polyreactivity (PSR sort gate)": "low polyreactivity"},
      {"sequence": "QVQLVESGGGLVQAGGSLRLSCAASGSTFVENAMGWYRQAPGKERELVAAITSSGGSTYYADSVKGRFSNSRDNAMNTVYLQMNSLKPEDTSVDYCGVDYIYDDAYNYWGQGTQVTVSS", "polyreactivity (PSR sort gate)": "high polyreactivity"},
      {"sequence": "QVQLVESGGGLVQAGGSLRLSCAASGSTFVFYAMGWYRQAPGKERELVAAITISGDITYYADSVKGRFTISRDNAKNTVYLQMNSLKPEDTAVYYCAADWHSWRWGYYYWGQGTQVTVSS", "polyreactivity (PSR sort gate)": "low polyreactivity"},
      {"sequence": "QVQLVESGGGLVQAGGSLRLSCAASGSTFVFYAMGWYRQAPGKERELVADITSGGRTSYADSVKGRFTISRDNAKNTVYLQLNSLKPEDTAVYYSAALTRWYAWYDYWGQGTQVTVSS", "polyreactivity (PSR sort gate)": "high polyreactivity"},
      {"sequence": "QVQLVESGGGLVQAGGSLRLSCAASGSTFVFYTMGWYRQAPGKEREFVASISGSGGSTYYADSVKGRFTISRDNAKNTVYLQMNSLKPEDTAVYYCAAGYPYYYWTPYYYWVQGTQVTVSS", "polyreactivity (PSR sort gate)": "high polyreactivity"},
      {"sequence": "QVQLVESGGGLVQAGGSLRLSCAASGSTFVGKVMGWYRQAPGKERELVAAISRGGSTYYADSVKGRFTISRDNAKNTVYLQMNSLKPEDTAVYYCAADVRPWGNYHAQYDYWGQGTQVTVSS", "polyreactivity (PSR sort gate)": "low polyreactivity"},
      {"sequence": "QVQLVESGGGLVQAGGSLRLSCAASGSTFVGNAMGWSRQAPGKERELVAAITSGGSTNYADSVKGRFTISRDNAKNTVYLQMNSLKPEDTAVYYCAKRVSGSPPTGGSLSDSWGQGTQVTVSS", "polyreactivity (PSR sort gate)": "high polyreactivity"},
      {"sequence": "QVQLVESGGGLVQAGGSLRLSCAASGSTFVGNAMGWYRQAPGKERELVAAITGGGGSTYYADSVKGRFTISRDNAKNSVYLQMNSLKPEDTAVDYCARDRTDYYVWYVRYYYWGQGTQVTVSS", "polyreactivity (PSR sort gate)": "low polyreactivity"},
      {"sequence": "QVQLVESGGGLVQAGGSLRLSCAASGSTFVGNAMGWYRQAPGKERELVAAITGGGGSTYYADSVKGRFTISRDNAKNTVYLQMNSLKPEDTAVYYCNKKLQRRSWYDYWGQGTQVTVSS", "polyreactivity (PSR sort gate)": "low polyreactivity"},
      {"sequence": "QVQLVESGGGLVQAGGSLRLSCAASGSTFVGNAMGWYRQEPGKERELVATISNSGGRTYYADSVKGRLTISRDNAKYTVYLQMNSLKPEDTAVYYCAADHPDFGPGYSFDYWGQGTQVTVSS", "polyreactivity (PSR sort gate)": "low polyreactivity"},
      {"sequence": "QVQLVESGGGLVQAGGSLRLSCAASGSTFVGYAMGWYRPAPGKERELVAAITIRGGSTYYADSVKGRFTISRDNAKNNVYLQMNSLKPEDTAVYYCAADYWYGGFEYWGQGTQVTVSS", "polyreactivity (PSR sort gate)": "low polyreactivity"},
      {"sequence": "QVQLVESGGGLVQAGGSLRLSCAASGSTFVGYAMGWYRQAPGKERELDAALSANVGGTYYADSVKGRFTISRDNAKNTVYLQMNSLKPEVTAVYYCAADYAYNYFWRPGDYWGQGTQVTVSS", "polyreactivity (PSR sort gate)": "low polyreactivity"},
      {"sequence": "QVQLVESGGGLVQAGGSLRLSCAASGSTFVGYAMGWYRQAPGKERELVAAISKSGGRTYYADSVKGRFTISRDNAKNTVYLQMNSLKPEDTAVYYCAAYFTRYDFRWHTYYYWGQGTQVTVSS", "polyreactivity (PSR sort gate)": "low polyreactivity"},
      {"sequence": "QVQLVESGGGLVQAGGSLRLSCAASGSTFVGYAMGWYRQAPGKERELVAAISRTGASTYYADSVKGRFTISRDNAKNTVYLQMNSLKPADTAVYYCAYYYSIYDYWGQGTQVTVSS", "polyreactivity (PSR sort gate)": "high polyreactivity"},
      {"sequence": "QVQLVESGGGLVQAGGSLRLSCAASGSTFVGYAMGWYRQAPGKERELVAAISYSGGSTYYADSVKGRFTISRDNAKNTVYLQMNSLKPEDTAVYYCAAEWSRHYYYGPRYDYWGQGTQVTVSS", "polyreactivity (PSR sort gate)": "low polyreactivity"},
      {"sequence": "QVQLVESGGGLVQAGGSLRLSCAASGSTFVHNAMGWYRQAPGKERELVARISFRSGRTYYADSVKGRFTISRDNAKNTVYLQMNSLKAEDTAVYYCNAVLYGQYKYDYWGQGTQVTVSS", "polyreactivity (PSR sort gate)": "high polyreactivity"},
      {"sequence": "QVQLVESGGGLVQAGGSLRLSCAASGSTFVIKAMGWYRQAPGKERELVAAITSGGDTNYADSVKGRFTISRDNSKYTVYLQMNSLKPEDTALYYCNARDGGQGNYSARYDYWGHGTQVTVSS", "polyreactivity (PSR sort gate)": "low polyreactivity"},
      {"sequence": "QVQLVESGGGLVQAGGSLRLSCAASGSTFVINAMGWYRPAPGKERELVARISSSGGRTDYADSVKGRFTISRDNAKNTVYLQMNSLKPEDTAVYYCAAATWLIPYTWRDPSQYNYWAQGTQVTVSS", "polyreactivity (PSR sort gate)": "low polyreactivity"},
      {"sequence": "QVQLVESGGGLVQAGGSLRLSCAASGSTFVIYDMGWYRQAPGKERELVAAISYSGGSTYYADSVKGRFTISRDNAKNTVYLQMNSLKPEDTAVYYCAAEGRSDWGGDDYYWGQGTQVTVSS", "polyreactivity (PSR sort gate)": "low polyreactivity"},
      {"sequence": "QVQLVESGGGLVQAGGSLRLSCAASGSTFVIYGMGWYRQAPGKERELVADITWIGGSTYYADSVKGRFTISRDNAKNTVYLQMNSLKPEDTAVYYCNADVRYGRDHWGQGTQVTVSS", "polyreactivity (PSR sort gate)": "low polyreactivity"},
      {"sequence": "QVQLVESGGGLVQAGGSLRLSCAASGSTFVKNTMGWYRQAPGKERELVAAISSRGGSTYYADSVKGRFTISRDNAKNTVYLQMNSLKPEDTAVYYCNALGLYSRYQQGEYDYWGQGTQVTVSS", "polyreactivity (PSR sort gate)": "low polyreactivity"},
      {"sequence": "QVQLVESGGGLVQAGGSLRLSCAASGSTFVKYAMGWYRQAPGKERELVAAITASGGRTYYADSVKGRFTISRDNAKNTVYLQMISLKPEDTAVYYCNARGYHYGTLFDYWGQGTQVTVSS", "polyreactivity (PSR sort gate)": "high polyreactivity"},
      {"sequence": "QVQLVESGGGLVQAGGSLRLSCAASGSTFVKYAMGWYRQAPGKERELVATITRRGGNTYYADSVKGRFTISRDNAKYTVYLQMNSLKPEDTAVYYCAKYSRTKAFEYWGQGTQVTVSS", "polyreactivity (PSR sort gate)": "high polyreactivity"},
      {"sequence": "QVQLVESGGGLVQAGGSLRLSCAASGSTFVKYAMGWYRQAPGKERELVATITYSSGSTSYADSVKGRFTISRDNAKNTVYLQMNSLKPEDTAVYYCAKKDYTGYGYWGQGTQVTVSS", "polyreactivity (PSR sort gate)": "low polyreactivity"},
      {"sequence": "QVQLVESGGGLVQAGGSLRLSCAASGSTFVLDDMGWYRQAPGKERELDAAISYSGDSTNYAASVKGRFTISRDNAKNTVYLQMNSLKPEDTAVYYCNARQRTYYRTHRIRHKGNGYWGQGTQVTVSS", "polyreactivity (PSR sort gate)": "low polyreactivity"},
      {"sequence": "QVQLVESGGGLVQAGGSLRLSCAASGSTFVNYAMGWYRQAPGKERELVAAISSTGGSTYYADSVKGRFTISRDNAKNTVYLQMNSLKPEDTAVYYCAAYRYFKMGYWGQGTQVTVSS", "polyreactivity (PSR sort gate)": "high polyreactivity"}
    ]}
  ]
}
